Test results from patent US20240279318A1 (NANJING LEGEND BIOTECH, published 2024).
Residue numbers refer to the chain shown, from its start.

B1: AS170036 VL1VH1 HP109A (scFv)
scFv: QSALTQPRSVSGSPGQSVTISCAGTSSDVGSENYVSWYQQHPGKAPKLMIYQVNKRASGVPDRFSGSKSGNTASLTISGLQAEDEADYYCASYRSSDHNIVFGGGTKLTVLGGGGSGGGGSGGGGSEVQLVESGGGLVQPGGSLRLSCAASGFTFSSYAMSWVRQAPGKGLEWVSTINSGTGSPYYADSVKGRFTISRDNSKNTLYLQMNSLRAEDTAVYYCAKNFFDGSWFLGAPAMDYWGQGTLVTVSSHHHHHH
B2: AS170036 VL1VH1 HP110T (scFv)
scFv: B1 scFv with A235P, P236T
B3: AS170036 VL1VH1 HP110A (scFv)
scFv: B1 scFv with A235P, P236A
B4: AS170036 VL1VH1 HP110Q (scFv)
scFv: B1 scFv with A235P, P236Q
B5: AS170036 VL1VH1 HP110L (scFv)
scFv: B1 scFv with A235P, P236L
B6: AS170036 VL1VH1 HS57F (scFv)
scFv: B1 scFv with S183F, A235P
B7: AS170036 VL1VH1 HS57N (scFv)
scFv: B1 scFv with S183N, A235P
B8: AS170036 VL1VH1 HP110D (scFv)
scFv: B1 scFv with A235P, P236D
B9: AS170036 VL1VH1 HS53A (scFv)
scFv: B1 scFv with S179A, A235P
B10: LD97L (scFv)
scFv: B1 scFv with D97L, A235P
notes: AS170036 VL1VH1 scFv mutein
B11: AS170036 VL1VH1 HP110N (scFv)
scFv: B1 scFv with A235P, P236N
B12: LD97V (scFv)
scFv: B1 scFv with D97V, A235P
notes: AS170036 VL1VH1 scFv mutein
B13: AS170036 VL1VH1 HP110I (scFv)
scFv: B1 scFv with A235P, P236I
B14: AS170036 VL1VH1 HP110S (scFv)
scFv: B1 scFv with A235P, P236S
B15: LD97M (scFv)
scFv: B1 scFv with D97M, A235P
notes: AS170036 VL1VH1 scFv mutein
B16: LE32H (scFv)
scFv: B1 scFv with E32H, A235P
notes: AS170036 VL1VH1 scFv mutein
B17: AS170036 VL1VH1 HP110V (scFv)
scFv: B1 scFv with A235P, P236V
B18: LD97Y (scFv)
scFv: B1 scFv with D97Y, A235P
notes: AS170036 VL1VH1 scFv mutein
B19: LD97E (scFv)
scFv: B1 scFv with D97E, A235P
notes: AS170036 VL1VH1 scFv mutein
B20: AS170036 VL1VH1 HP109T (scFv)
scFv: B1 scFv with A235T
B21: LD97P (scFv)
scFv: B1 scFv with D97P, A235P
notes: AS170036 VL1VH1 scFv mutein
B22: AS170036 VL1VH1 HS57T (scFv)
scFv: B1 scFv with S183T, A235P
B23: LE32I (scFv)
scFv: B1 scFv with E32I, A235P
notes: AS170036 VL1VH1 scFv mutein
B24: AS170036 VL1VH1 HP110E (scFv)
scFv: B1 scFv with A235P, P236E
B25: AS170036 VL1VH1 HW105M (scFv)
scFv: B1 scFv with W231M, A235P
B26: LD97Q (scFv)
scFv: B1 scFv with D97Q, A235P
notes: AS170036 VL1VH1 scFv mutein
B27: LE32A (scFv)
scFv: B1 scFv with E32A, A235P
notes: AS170036 VL1VH1 scFv mutein
B28: AS170036 VL1VH1 HP109N (scFv)
scFv: B1 scFv with A235N
B29: AS170036 VL1VH1 HS57A (scFv)
scFv: B1 scFv with S183A, A235P
B30: AS170036 VL1VH1 HS57D (scFv)
scFv: B1 scFv with S183D, A235P
B31: LD97W (scFv)
scFv: B1 scFv with D97W, A235P
notes: AS170036 VL1VH1 scFv mutein
B32: AS170036 VL1VH1 HS53T (scFv)
scFv: B1 scFv with S179T, A235P
B33: AS170036 VL1VH1 HP110G (scFv)
scFv: B1 scFv with A235P, P236G
B34: LD97I (scFv)
scFv: B1 scFv with D97I, A235P
notes: AS170036 VL1VH1 scFv mutein
B35: AS170036 VL1VH1 HS57W (scFv)
scFv: B1 scFv with S183W, A235P
B36: AS170036 VL1VH1 HW105F (scFv)
scFv: B1 scFv with W231F, A235P
B37: AS170036 VL1VH1 HS57Y (scFv)
scFv: B1 scFv with S183Y, A235P

Experiments:
[1] = target: T1, AFP158/HLA-A*02:01 complex (human); experiment: SPR, crude scFv captured;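 note: Peptide–MHC complex flowed at several concentrations over sensorchip-captured scFv, Kd derived from on- and off-rates obtained from the association and dissociation curves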
T1 construct: biotinylated on the BSP by BirA for ELISA and panning; also called biotinylated AFP158/HLA-A*02:01 complex; Bio-AFP158
Experimental: (§1) The experiment was carried out as follows. The crude scFv protein were captured onto the sensorchip. Different concentrations (320, 160, 40 nM) of AFP158/HLA-A*02:01 complex flowed over the sensorchip surface, and were allowed to bind the antibody fragment for 100 s followed by injection of the running buffer to allow dissociation of the complex. On-rate (kd) and off-rate (kd) were calculated based on association and dissociation curve, and were used to estimate the equilibrium dissociation constant (KD).

[2] = target: T1, AFP158/HLA-A*02:01 complex; experiment: SPR; vs AS170036 VL1VH1;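 note: crude scFv captured on sensor chip, peptide–HLA complex flowed over at several concentrations, KD estimated from association and dissociation kinetic rates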
Experimental: as §1

[3] = target: T2, AFP158/HLA-A*02:01 complex (human); experiment: SPR, KD ratio to AS170036 VL1VH1;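 note: crude scFv captured on a sensor chip, peptide–HLA complex passed over at several concentrations, association then buffer dissociation, KD derived from on- and off-rates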
T2 construct: flowed over the chip in SPR; also called AFP158 pro
Experimental: as §1

[4] = target: T2, AFP158/HLA-A*02:01 complex; experiment: SPR, scFv captured, pMHC in flow;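 note: complex injected at several concentrations over crude scFv, association then running-buffer dissociation, KD estimated from kinetic on- and off-rate constants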
Experimental: as §1

| Binder | Kd [1] [nM] | Affinity increase [2] [fold] | Affinity increase [3] [fold] | Kd [4] [nM] |
| --- | --- | --- | --- | --- |
| B1 | 2700 | 0.1 | – | – |
| B2 | 180 | 1.3 | – | – |
| B3 | 210 | 1.3 | – | – |
| B4 | 300 | 0.9 | – | – |
| B5 | 1500 | 0.2 | – | – |
| B6 | 180 | 1.4 | – | – |
| B7 | 170 | 1.5 | – | – |
| B8 | 540 | 0.5 | – | – |
| B9 | 1200 | 0.2 | – | – |
| B10 | – | – | 0.4 | 640 |
| B11 | 1200 | 0.2 | – | – |
| B12 | – | – | 0.4 | 660 |
| B13 | 1500 | 0.2 | – | – |
| B14 | 300 | 0.8 | – | – |
| B15 | – | – | 0.4 | 590 |
| B16 | – | – | 0.3 | 830 |
| B17 | 400 | 0.6 | – | – |
| B18 | – | – | 0.4 | 570 |
| B19 | – | – | 0.4 | 690 |

| Binder | Kd [1] [nM] | Affinity increase [2] [fold] | Affinity increase [3] [fold] | Kd [4] [nM] |
| --- | --- | --- | --- | --- |
| B20 | 5400 | 0.1 | – | – |
| B21 | – | – | 0.3 | 790 |
| B22 | 220 | 1.1 | – | – |
| B23 | – | – | 0.3 | 860 |
| B24 | 150 | 1.8 | – | – |
| B25 | 1200 | 0.2 | – | – |
| B26 | – | – | 0.4 | 580 |
| B27 | – | – | 0.3 | 700 |
| B28 | 4500 | 0.1 | – | – |
| B29 | 210 | 1.2 | – | – |
| B30 | 200 | 1.2 | – | – |
| B31 | – | – | 0.4 | 570 |
| B32 | 650 | 0.4 | – | – |
| B33 | 260 | 1 | – | – |
| B34 | – | – | 0.4 | 650 |
| B35 | 380 | 0.6 | – | – |
| B36 | 1400 | 0.2 | – | – |
| B37 | 200 | 1.2 | – | – |
